The source of these data is patent publication US20240158538A1.

This experiment has as its target VISTA (analyte in the BLI assay with VSIG-3) (Homo sapiens (Human)) (UniProt Q9H7M9). The experiment is described as follows: BLI (Octet QK384), 100 nM Fc-tagged VSIG-3 on anti-human Fc biosensor, VISTA from 3000 nM in solution.

As for “Fc-tagged VSIG-3 (from UniProt Q5DX21 23-241) (Fc fusion)”, the Kd is 5.28 µM.
